Test system: CHODukx negative
Assay: Western blot of cell lysates, negative control
Format: binding
Set-up: key: “−” no signal; “+”-“+++++” signal intensity; “+”-“+++++” signal intensity; “+”-“+++++” signal intensity; “+”-“+++++” signal intensity; “+”-“+++++” signal intensity
Details: CHODukx negative lysate
Method: The positive clones (Table 1) were further characterized by immunofluorescence (IF; Table 2), Western Blot (Table 3, 1) and Immune precipitation (Table 4, 2) on full length hCB2, hCB1, mCB2 stable-transfected CHO-cell lines in addition to the 2 pANITA constructs.
For Western blot analysis, cells were collected using enzyme free dissociation buffer (Cell dissociation buffer enzyme-free Hanks'-based, Gibco), and washed two times with PBS. To prepare cell lysate, 10^6 cells were lysed with 0.1 ml of lysis buffer (1% NP40, 10% glycerol, 2 mM EDTA, 137 mM NaCl, 20 mM TrisHCl, pH8, Protease Inhibitors) for 10 min on ice. The lysate was cleared by centrifugation at 20′000 g for 5 min. For SDS-PAGE cell lysate was resolved on precast 4-12% gradient gels (NuPAGE® Novex 4-12% Bis-Tris Gel, Invitrogen) with MES running buffer according to the manufacturer's directions. The separation of proteins was visualized by Colloidal Blue staining. The proteins were electrophoretically transferred to nitrocellulose membrane using a dry-blotting system (iBlot, Invitrogen). After blocking the membrane for 16 h in blocking buffer (5% Milk in PBS) at 4° C., specific proteins were detected with appropriate dilutions of mAbs in blocking buffer for 1 h at approximately 20° C. […]

B1: hCB2-1/622: murine IgG3 monoclonal anti-human CB2 antibody, VH SEQ ID NO: 1, VL SEQ ID NO: 2, HC SEQ ID NO: 3, LC SEQ ID NO: 4 (antibody)
heavy: EVQLQQSGPELVKPGASVKISCKTSGYTFTEYTMHWVRQSHGKSLEWIGGIDRYNGDTYYNQKFKDKATLTVDRSSSTAYMELRSLTSEDSAVYFCARNGAMDYWGQGISVTVSSATTTAPSVYPLVPGCSDTSGSSVTLGCLVKGYFPEPVTVKWNYGALSSGVRTVSSVLQSGFYSLSSLVTVPSSTWPSQTVICNVAHPASKTELIKRIEPRIPKPSTPPGSSCPPGNILGGPSVFIFPPKPKDALMISLTPKVTCVVVDVSEDDPDVHVSWFVDNKEVHTAWTQPREAQYNSTFRVVSALPIQHQDWMRGKEFKCKVNNKALPAPIERTISKPKGRAQTPQVYTIPPPREQMSKKKVSLTCLVTNFFSEAISVEWERNGELEQDYKNTPPILDSDGTYFLYSKLTVDTDSWLQGEIFTCSVVHEALHNHHTQKNLSRSPGK
light: DVVMTQTPLSLPVSLGDQASISCRSSQSLVHSNGNTYLHWFLQKPGQSPKLLIYKVSIRFSGVPDRFSGSGSGTDFTLKISRVEAEDLGVYFCSQSTHVPPLTFGAGTKLELKRADAAPTVSIFPPSSEQLTSGGASVVCFLNNFYPKDINVKWKIDGSERQNGVLNSWTDQDSKDSTYSMSSTLTLTKDEYERHNSYTCEATHKTSTSPIVKSFNRNEC
Western Blot signal intensity: −

From patent US20260029420A1, “ANTI-CB2 ANTIBODIES AND THEIR USE IN A FLOW CYTOMETRY ASSAY TO MEASURE CELL SURFACE CB2 EXPRESSION” (Hoffmann-La Roche Inc., priority 2022, published 2026)
